Data published in the DeepSol protein solubility set.

assay: soluble on expression in E. coli; label from the status in PepcDB or PDB records

| Sequence | soluble on expression in E. coli |
| --- | --- |
| MGSDKIHHHHHHMLITFNFEVHQPHRLNKEINQNGNTLWEKYVDTKLNKEVFNKVANKCYIPTNELILELIDEYDFKVNYSITGVFVEQALEFNDYVLDLFKDLVKTGNVELIAETYHHSLTSLFETEDEFIEDIEMHRKMYKEIFGFKAKVFRNTELIYNNRIAKIAKDLGFKAIFTEGIEKILGWRSPNYLYQSPDGMKILLRNYRLSDDIGFRFSARDWDQYPLTADKYAIWLASTPGEVINIYMDYETFGEHHWKETGIFEFLRYLPIEIAKHEHLEVVNVSEVVDRLEPRGEIYVHEFATISWADTERDVSAWLGNKMQRISFEKLKDIGKFIKENSNKLKKLNKFDEIYKMYKVLQTSDNLYYQSIKGLSDMSVHNYFSHFDTPFDAYASYLNILYDFEYYIKELLAKSEFDKNNRRKDGQKQYEKDDEVKKESLINTNIIVAKDDKTESIYIEDEEGKKNKRYERDEGFIIA | not soluble |
| MGSDKIHHHHHHMLKLKKILADLHVEQAELAEQMAYSQATISQLVNHSVWPKRAARWGLRERILKFLKERGANDDQVATAFEEWTPTRGNASESGSHTPTGGTEDEAMSIRKQILHPNTRRHFKLPGDPFEEVASAEEFYQNEHIRFTRAAMLDAAKRGGFLAVVGESGSGKTTMRRDLQERIERESIQVQVIRPYVVAMEDNDDKGKTLKATHIAEAIMAAVAPHEVLKTSSEARFRQVEKALKESYRTGMRHVVLIEEAHAMPLATLRHLKRFIELEDGFTRLLSVILIGQTELAIKLNPKNATVREVVQRCELITLPPLGQYLEDYLKFRFARLGVQLDQMVTLDGVQAIRSRLQPEAPRGHEERSFLYPLAVHNLLTAAMNLAAENGAPAVSADIVMEAKWN | not soluble |
| MGSDKIHHHHHHMLKNDRWITEQAAAGMLEPFQAGLIRHLDPEQHQRPVLSFGCSSFGYDLRLSAKEFLIFRHVPGTVMNPKRFNPANLESTPLHQDEDGEYFILPAHSYGLGVALEKMKVPSNITVICLGKSTYARLGIIVNTTPAEASWEGHLTLEFSNSSGADCRIYANEGICQLLFFEGDPCDTTYSDRQGKYQHQPERVTLARI | not soluble |
| MGSDKIHHHHHHMLKRKIETFLAKWKKSEDRKPLVIKGIRQCGKTYIVQKFAKENYESVVYMNFILEPDKKSAFTGNIDVDTIILNLSALIQGSRFINGKTCIILDEIQECKEARTALKSFHIDGRFDVIATGSLLGVKGYDKSKKKKEEEEGQDSVPVGYETVIDMYPLDFEEFLWANGISDMVIDSVKSCFENESTVPDGIHKAMMELLYRYVIVGGLPEVVNCFLETKNIELIYKVQRNLIAEYEEDMVKYADDPDKPRIRECFESIPKQLAKENKKFQYSVVKKGGRASQYIGSIQWLEDAGIVRRCYNTQITELPLEGNSIKGSFKVYTTDIGILMAMLDYGTQADILKGNLLGYKGAIFENLMADFLCKSGQKLYYFHKDSGLELDFLVRFKGECVILEVKAKTGKAKSMTTVLKNKDVYYVNNAIKLGQYNVGCEGDILTIPLYMGFLVEDKLADVIIPDVDVSLLTTI | not soluble |
| MGSDKIHHHHHHMLLILDEYFKEHPIKLRIVDGLYTSGISIRNGRFFTNDVEISVSEIASAFNVNRKTVYETIKLVESNDSLRRVMSSIKPMADIADVALLTGNQIITAYTTLGHFPYVFKEIFNTISKYGCYIREVFSRNMSQEESFIRIIFYRPIPDRIIGQIRKIDGVKSLEVRVNMDTDQILCNNCDIKICPTKYISDVEKEELGDL | not soluble |
| MGSDKIHHHHHHMLLLEVKNVSKSYGDTEVLKNVSFELNEGDVMGVLGRSGAGKSVLLHMLRGMEGYEPTSGQIIYHVAYCPHCENVEAPSQVGKKCECETEYVAKSVDFWNNNEITYALKKKIAIMLQRTFALYGEKTVAENIMEALTAAGYEGKDATEWALNLIKMVKLEHRVAHISRDLSGGEKQRVVLARQIAKNPVIFLADEPTGTLDPKTAKFVHNALTEAVIKHNIAMVITSHWPEVIEELCQKAIWLDKGEMRLVGESKHVVEEFMKTVTSMKEFEKVEVKDELLKLENVEKRYVSVDRGIVKAVDGIDVSINEKEIFGLVGVSGAGKTTLSKIIAAVIPPSKGNYEFRLADEWVDMTKVGPLYRGRAKRYIGMLFQEYSLYPHRTILYNLTESIGLEMPGEFAKMKAEHTLVSVGFTEEEAENMLEKHPSELSVGEKHRVALAQVLIREPHLILLDEPTGTMDPITRNQVAESIQKSRSELDQTYVIVSHDMDFVLNVCDRAALVRGGKIIKTGKPDEIVKILSEEEKDEMIGH | not soluble |
| MGSDKIHHHHHHMLLQRSTWPEVEAYLQQSDGIIIPIGSTEQHGPTGLIGTDAICAEAIAQGVADRTQALVGPTINVGMALHHLGFPGSVSLRPSTLLQVIVDYLSSLAQHGFRHFYFINGHGGNIATVRAAFAEFYAVAGDRRCPEPDRLRCHLANWFMVPAVTKLARELYGDEEGSHATPSEVALTQFIYPDSIKTAPLTVEVHSSHAIYAADDFRRRYPDGRMGSNPALATPEHGQQFYESAVAELSQSYQAFLAAD | not soluble |
| MGSDKIHHHHHHMLNYHHLRYFWIVAHEGNLTRAARKHNIAQSALSMQISALEEYLGQPLFERAGRRLVLTEAGHIALDFADAIFAKGDELLGTFGRLAEAHQKVLRVGALATLSRNFQVGFLRPLFADPEITVIVRSGTLDELLGSLKLYDLDIVLATGVPNRDHATPWIVHIIDTQPVGLIGQPRSDRYQQPLEVLLQREPLIVPSPESTIRTGFDALVHRLGIRPRIVAEIDDMAMMRLVAREHNGLAVIPPIVVTDELRSGMLVEYAELPELVETFCAITMPRRFPNPLLRLVLPGHTTPE | not soluble |
| MGSDKIHHHHHHMLSDITVRYKLNNSIKDSRFETEHLAKYHLSFQVNFELFRICIVDGDSNRCLFLEDYTLADIYTTNDLLEQLDILFEDHILIKAGFWKSITVGFKNTQFSLIPEALFEKDYLKEYLTLNTTLDREPDEEYHFYKQRQTEAVNVFATNQRLTSWFNKTYPLKQVRYVHHTASMIEGIMLQKDKNAAEKSVFIQVEQYFLTIIVKQGKKLIFCNSFTFNTSEDFVYFILFVFDQLELNPEKCPVVVFGEITHDSESFSKLYKYIRHLTFGSKPEFVRFGYQFDEVFDHRYFDLYNMHLCQG | not soluble |
| MGSDKIHHHHHHMLSKLWKRQAPQMVGIDIGSHEIKAILLSKTADGYKIQNHASVPVRKGAVVDHDIRDTEAVIESLRQIRRGLPKSLKFAAVAVSGSAVMTKVIYMDAALNEEEMEAQIEIEADNLIPYSLDEVSIDFERLNPNITDPTKVNVLLSACRTENIDSRVDSLDAIELDVKVVDVEAYALGRSAELIYAQLPDGAKAKSIAMVDIGANMTTFSVVENGDTTFIREQAFGGELFTQSIVSFYGMPHDEAERAKISGQLPRNYMFEVLSPFQMQLLQQIKRTLQIYCTASGREKVDYIVLCGGTAKLEGMVELLTNELGTHTIVADPFQGCLHADDVMKGQLQPNISKYMVACGLALRSYAQWRT | not soluble |
| MGSDKIHHHHHHMLSRTADHLFWMSRYTERAENTARMLNVSYETSLLPQSADVAQESWLGLLSISELIPAYTARHGEVTREGVLEFMVRDGDNPSSILSCLRAARENARAVRGALTTEIWETQNQTWLELHRQLQGRDFERDPGAFFEWVKYRSHLSRGVTLGTMLQDEAFHFLRLGTFLERADNTARLLDVKFHAVQSDFHGSAMRERGRAAPQEFDFYHWSAILRSVSAFEVYRKVYRDVITPERVADLLMLRADMPRSLHASLREVADNLAVVANDQSAETQRKAGRLLADLRYGRIDEILATGLHAYLTQFLDRVNDLGAGISRDFLVPVPA | not soluble |
| MGSDKIHHHHHHMLTCDVFFASKNKKGEEVCGDSIKVKRESEKIVVSVSDGLGSGIKASILSTLTATIASTMLMNGLPVTDVFRTILATLPICRVRKISYSNLCSVVCDFKNNTCTVVEYEFPVVMLFKGERRVFPEKQGLEIEGKKVFVWQFRSEAGTLLLLATDGLSQAGMGTDLFPLGFGVENIEKEMKHLLKNHVSPENIVRHFVKLAEKLDQEVRGDDTLVACLNFREKRILNLFVGPPEDRKKDEEYVRTFLSLPGKKIVCGGTTGQIFERVTGKKVEIDLYTLSENSPPVGYMEGIDLMTEGIVTLTQVFRYLEGQSEELGYGAKFIVKSLLEADEINFFVGRAINPAHQNPLFSHDISLKFRLVKDIAQILREKGKIVNVQYC | not soluble |
| MGSDKIHHHHHHMLYTENLQSLIDSGKGYNVEFKVRVPSKVRELTEEICAFANADGGYLLIGVDDNGQVVDTNLENDKRSAIQGSISEISPALHCELYSVNVGNKTVWVIDVPSGKDKPYIFSGSIYVREGANSQKLRTAEEMRSFFQECNKIFFDHIPCHWFNIYTDADEQMIKGFRTEAKLSPSTPDKQIFENLELFIENGTAKNGAAMFFGKQPERKFPHAVTRCVLFKGTNKVYIIDDKTFGGSLYQQYLQAMSWLESKLQVAYKIEGAGPREEIWEIPLTVFKEAIINALSHRDYYEQGASIMIEMFDDRVEISNPGGLLPVVAKDFGHKSMTRNPLIFGLFTRMHLVERVASGIPRMQEAMREANLPEPEFHTEGMFTVVFKRKNTNSANRDIVNGIINGIVNENEQTILNLLKAKPGLNASEVAESLSKSWRTTMRYLKSLNDKGLVEFRGAPKTGGYYLTRNI | not soluble |
| MGSDKIHHHHHHMMNNLKRILKNPRLILIFILSRYCHWIDDKTYLCIMYFIYFGKLLHLNSPRTFNEKLQWLKLYDRHPEYTQMVDKATVKEYVASIIGEKYIIPTLGVWENFDDIDFENIPSSFVLKCTHDSGGVVICENKNLFDVEKARSKLLKSMKKNYYYVGREYPYKDIKPRIIAEKYMVDESHIELKDYKIHLFHGIPNFIQVDFDRFTSHHRNLYTIDWKPLGKAIKYPAVYEREIDKPIVLDEMLELAMKLAFNIPYVRADFYCIGNKVYFGELTFYHGSGFETFSPKSFDEELGALIKLS | not soluble |
| MGSDKIHHHHHHMMQPVINAPEIATAREQQLFNGKNFHVFIYNKTESISGLHQHDYYEFTLVLTGRYFQEINGKRVLLERGDFVFIPLGSHHQSFYEFGATRILNVGISKRFFEQHYLPLLPYCFVASQVYRTNNAFLTYVETVISSLNFRETGLEEFVEMVTFYVINRLRHYREEQVIDDVPQWLKSTVEKMHDKEQFSESALENMVALSAKSQEYLTRATQRYYGKTPMQIINEIRINFAKKQLEMTNYSVTDIAFEAGYSSPSLFIKTFKKLTSFTPKSYRKKLTEFNQ | not soluble |
| MGSDKIHHHHHHMMRNIAICSNEVENLILGQDSVKTIDMNGILVRCGLLRTENIYFDRNAVSNRFKVLVKKKAFSCNYRDKSIIFRITKQAPENTFYVVGSDFVGEVIATGSEVTELKVGDRVIANNAYPESDALEAFPGIPSNHASKEYQVFHQAKLIKIPLEMSDEIAAAFSIGGQTSYSIVRKFNPTKGSNILVTAAKSNTSLFVINALKKYDVNIYATSTSRLFEEELRAMGVKKVILVESKPNSLLENQSIQNIVAETGGFDCVFDPFFDLYLGQSVELMKIGAKYITCGLYDQYFELINQSFTPFSLNTNHIMGSVMTKNLQIIGNCLGLTEDLKNAIQDYALGHLNVVIDSVFTGKDIEGFFERTYNAKDRFGKVVYKYE | not soluble |
| MGSDKIHHHHHHMMTDTHASKNTSTDRSTLDEETVPGGGHTSFILKRGQILQITDVEGGGNVGLLLFNAHQTSERLNLPDTLKGQHTAKLTAGYCLYSDMGRVLAAIVTDTCGWHDSMGGVLNAQEVHEKYGQGRYQELRNGFFRNGMDNLLVEMGKWNLNLQDLLMTINLFSKVTVDAQGQFRFHANHSQAGNYIELYAPMDTLVVLTALQHPMDPNPTYAPRPIALTWSRAEGEDVAKYCREFREENARAFHNTERGYL | not soluble |
| MGSDKIHHHHHHMMTYYFIADLHLNESQPQITHQFLQFMQQKAPLAQAVYILGDFFDFWIGDDEQSVLISQVKLALKKLTASGVKCYFICGNRDFLLGQTFAQQTGIQLLADYHLLDLFGERTLLCHGDTLCIDDIKYQQFRRRVHQKRLQKLFLWLPLTLRIKIAQKIRRKSKQDKKNKSADIMDVNQAFTAQKVHQYGATHLIHGHTHRQAVHFEQNFTRIVLGDWRPDRSSILKVDEKGFEFL | not soluble |
